1 molecule from publication PMC11063191, “Galectin-3 impairs calcium transients and β-cell function” (Nature Communications, 2024) can be followed below.

The experiment addresses T1, Mouse Gal3 protein (recombinant) (mouse, UniProt P16110 1-264).
T1 construct: Galectin-3, mouse, bought protein; R&D is named as the source only for the BLI assay; also called galectin-3; source: bought: R&D
Briefly: BLI; His-tagged CACNG1 (30-109) captured on Ni-NTA biosensors, Gal3 in a concentration gradient, Octet (ForteBio), 30 °C. The note with it: both partners purified. Background: In BLI a coated tip is dipped into the sample, and binding shifts an interference pattern.

T1 sequence (P16110 whole entry): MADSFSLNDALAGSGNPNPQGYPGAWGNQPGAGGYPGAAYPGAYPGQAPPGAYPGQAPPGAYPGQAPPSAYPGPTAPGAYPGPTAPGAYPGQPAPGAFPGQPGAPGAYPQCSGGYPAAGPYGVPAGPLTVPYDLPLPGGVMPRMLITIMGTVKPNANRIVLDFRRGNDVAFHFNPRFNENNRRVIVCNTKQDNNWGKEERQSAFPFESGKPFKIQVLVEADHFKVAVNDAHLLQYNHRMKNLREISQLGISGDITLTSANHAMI

B1: Extracellular domains of mouse CACNG1 (30-109 AA) with His tags (domain or fragment, UniProt O70578 30-109, looked up)
chain: DHWAVLSPHLEHHNETCEAAHFGLWRICTARVAVHNKDKSCEHVTPSGEKNCSYFRHFNPGESSEIFEFTTQKEYSISAA
modifications: includes the two glycosylation sites
notes: CACNG1, mouse, extracellular domains, residues 30-109, including the two glycosylation sites
As to B1, the Kd worked out at 180 nM.

For orientation: Kd means the concentration at which binding is half-saturated.
